Assay results: paper PMC9352680, “A comprehensive thermodynamic model for RNA binding by the Saccharomyces cerevisiae Pumilio protein PUF4”
Numbering of substitutions follows the chain as printed. Names may count otherwise.

T1: PUF4 RNA-binding domain (Saccharomyces cerevisiae, UniProt P25339 537-888)
T1 sequence: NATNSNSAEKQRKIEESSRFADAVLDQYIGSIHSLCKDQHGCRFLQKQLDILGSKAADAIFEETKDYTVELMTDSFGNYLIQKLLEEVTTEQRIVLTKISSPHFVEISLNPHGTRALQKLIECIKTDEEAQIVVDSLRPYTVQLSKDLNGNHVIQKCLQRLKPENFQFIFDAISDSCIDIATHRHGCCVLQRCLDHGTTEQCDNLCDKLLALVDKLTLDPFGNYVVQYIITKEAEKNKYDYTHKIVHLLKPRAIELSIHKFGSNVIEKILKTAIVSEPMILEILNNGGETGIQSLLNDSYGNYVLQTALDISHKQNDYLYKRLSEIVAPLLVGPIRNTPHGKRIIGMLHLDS

B1: Ic_S1_P4E.1_K4.1_C4.1_H4.1_A4.1_[T7C]_F4.1_[T8G]_T4.1 (ssRNA)
RNA: UCUCUUUGUAUACGAUCUCUU
B2: Ib_S1_P4E.1_K4.1_C4.1_H4.1_A4.1_[A6C]_F4.1_[T8A]_T4.1 (ssRNA)
RNA: UCUCUUUGUAUCUAAUCUCUU
B3: Ib_S1_P4E.1_K4.1_C4.1_H4.1_A4.1_[A6G]_F4.1_[T8A]_T4.1 (ssRNA)
RNA: UCUCUUUGUAUGUAAUCUCUU
B4: Ib_S1_P4E.1_K4.1_C4.1_H4.1_A4.1_[T7G]_F4.1_[T8C]_T4.1 (ssRNA)
RNA: UCUCUUUGUAUAGCAUCUCUU
B5: Ic_S4_P4E.1_K4.1_C4.1_H4.1_A4.1_[T5A]_[A6C]_F4.1_T4.1 (ssRNA)
RNA: UUUGACAACUGAUCGUUCUUUCUUGUAACUUAUUCUUUCUCGAUCAGUUGUCUUU
B6: Ic_S4_P4E.1_K4.1_C4.1_H4.1_A4.1_[A6G]_[T7C]_F4.1_[T8G]_[A9C]_T4.1 (ssRNA)
RNA: B5 RNA with A28U, C29G, U30C, U31G, A32C
B7: Ic_S4_P4E.1_K4.1_C4.1_H4.1_A4.1_[T5A]_[A6T]_F4.1_[T8G]_[A9C]_T4.1 (ssRNA)
RNA: B5 RNA with C29U, U31G, A32C
B8: Ic_S4_P4E.1_K4.1_C4.1_H4.1_A4.1_[T5A]_F4.1_[T8A]_[A9G]_T4.1 (ssRNA)
RNA: B5 RNA with C29A, U31A, A32G
B9: Ic_S4_P4E.1_K4.1_C4.1_H4.1_A4.1_[T5A]_[A6T]_F4.1_[T8A]_[A9G]_T4.1 (ssRNA)
RNA: B5 RNA with C29U, U31A, A32G
B10: Ic_S4_P4E.1_K4.1_C4.1_H4.1_A4.1_[T5A]_[A6T]_F4.1_[A9C]_T4.1 (ssRNA)
RNA: B5 RNA with C29U, A32C
B11: Ic_S4_P4E.1_K4.1_C4.1_H4.1_A4.1_[T5A]_[T7A]_F4.1_[T8C]_[A9T]_T4.1 (ssRNA)
RNA: B5 RNA with C29A, U30A, U31C, A32U
B12: Ic_S4_P4E.1_K4.1_C4.1_H4.1_A4.1_[T5A]_[A6T]_[T7G]_F4.1_[T8C]_[A9C]_T4.1 (ssRNA)
RNA: B5 RNA with C29U, U30G, U31C, A32C
B13: Ic_S4_P4E.1_K4.1_C4.1_H4.1_A4.1_[T5A]_[A6T]_F4.1_[T8C]_T4.1 (ssRNA)
RNA: B5 RNA with C29U, U31C
B14: Ic_S4_P4E.1_K4.1_C4.1_H4.1_A4.1_[A6C]_[T7G]_F4.1_[T8G]_[A9C]_T4.1 (ssRNA)
RNA: B5 RNA with A28U, U30G, U31G, A32C
B15: Ic_S4_P4E.1_K4.1_C4.1_H4.1_A4.1_[T5A]_[T7C]_F4.1_[T8C]_[A9G]_T4.1 (ssRNA)
RNA: B5 RNA with C29A, U30C, U31C, A32G
B16: Ic_S4_P4E.1_K4.1_C4.1_H4.1_A4.1_[T5A]_[T7C]_F4.1_[A9C]_T4.1 (ssRNA)
RNA: B5 RNA with C29A, U30C, A32C
B17: Ic_S4_P4E.1_K4.1_C4.1_H4.1_A4.1_[T5A]_[A6T]_[T7A]_F4.1_T4.1 (ssRNA)
RNA: B5 RNA with C29U, U30A
B18: Ic_S4_P4E.1_K4.1_C4.1_H4.1_A4.1_[T5A]_[A6T]_[T7C]_F4.1_[A9G]_T4.1 (ssRNA)
RNA: B5 RNA with C29U, U30C, A32G
B19: Ic_S4_P4E.1_K4.1_C4.1_H4.1_A4.1_[T5A]_[T7A]_F4.1_[A9G]_T4.1 (ssRNA)
RNA: B5 RNA with C29A, U30A, A32G
B20: Ic_S4_P4E.1_K4.1_C4.1_H4.1_A4.1_[A6G]_F4.1_[T8A]_T4.1 (ssRNA)
RNA: B5 RNA with A28U, C29G, U31A
B21: Ic_S4_P4E.1_K4.1_C4.1_H4.1_A4.1_[T5A]_[T7C]_F4.1_[A9T]_T4.1 (ssRNA)
RNA: B5 RNA with C29A, U30C, A32U
B22: Ic_S4_P4E.1_K4.1_C4.1_H4.1_A4.1_[T5A]_[T7C]_F4.1_[T8G]_[A9T]_T4.1 (ssRNA)
RNA: B5 RNA with C29A, U30C, U31G, A32U
B23: Ic_S4_P4E.1_K4.1_C4.1_H4.1_A4.1_[T5A]_[A6T]_[T7C]_F4.1_[T8C]_T4.1 (ssRNA)
RNA: B5 RNA with C29U, U30C, U31C
B24: Ic_S4_P4E.1_K4.1_C4.1_H4.1_A4.1_[A6G]_[T7C]_F4.1_[T8C]_[A9C]_T4.1 (ssRNA)
RNA: B5 RNA with A28U, C29G, U30C, U31C, A32C
B25: Ic_S4_P4E.1_K4.1_C4.1_H4.1_A4.1_[T5A]_[T7C]_F4.1_[T8C]_[A9T]_T4.1 (ssRNA)
RNA: B5 RNA with C29A, U30C, U31C, A32U
B26: Ic_S4_P4E.1_K4.1_C4.1_H4.1_A4.1_[T5A]_[A6T]_[T7C]_F4.1_[T8A]_[A9C]_T4.1 (ssRNA)
RNA: B5 RNA with C29U, U30C, U31A, A32C
B27: Ic_S4_P4E.1_K4.1_C4.1_H4.1_A4.1_[T5A]_[T7C]_F4.1_[T8A]_[A9T]_T4.1 (ssRNA)
RNA: B5 RNA with C29A, U30C, U31A, A32U
B28: Ic_S4_P4E.1_K4.1_C4.1_H4.1_A4.1_[T5A]_[A6T]_[T7A]_F4.1_[T8A]_T4.1 (ssRNA)
RNA: B5 RNA with C29U, U30A, U31A
B29: Ic_S4_P4E.1_K4.1_C4.1_H4.1_A4.1_[A6C]_[T7G]_F4.1_[T8C]_[A9C]_T4.1 (ssRNA)
RNA: B5 RNA with A28U, U30G, U31C, A32C

Target: T1, PUF4 RNA-binding domain
Experiment: Mg; RNA-MaP; 20 mM Na-HEPES pH 7.4, 30 mM KOAc, 0.75 mM MgCl2, 0.1% Tween-20, 5% glycerol, 0.1 mg/mL BSA, 2 mM DTT; 25 C; 0.0125-409.6 nM protein
Conditions: tags: N-His6-TEV cleaved; C-SNAP kept, Cy3B-labelled; label: tethered on chip by stalled RNA polymerase

| Binder | Kd [nM] |
| --- | --- |
| B1 | 42.1 |
| B2 | 49.3 |
| B3 | 94.6 |
| B4 | 26.2 |
| B5 | 3.93 |
| B6 | 995 |
| B7 | 421 |
| B8 | 78.7 |
| B9 | 467 |
| B10 | 64.3 |
| B11 | 258 |
| B12 | 1200 |
| B13 | 205 |
| B14 | > 2300 |
| B15 | 942 |
| B16 | 76.1 |
| B17 | 1.95 |
| B18 | 41.6 |
| B19 | 44.5 |
| B20 | 70.5 |
| B21 | 51.4 |
| B22 | 506 |
| B23 | 464 |
| B24 | 558 |
| B25 | 175 |
| B26 | 1050 |
| B27 | 211 |
| B28 | 144 |
| B29 | 994 |
